This note sets out measurements from publication PMC10330821.

The target of this assay is native bovine chromogranin B (bCHGB) (bovine). In words: SEC; bCHGB in detergents, re-extracted from vesicles and fractionated by gel filtration; elution position compared with recombinant mCHGB.

“native bovine chromogranin B (bCHGB) (natural protein)”: the stoichiometry N turned out to be 2.
